The numbers were not newly measured in article PMC3433420, which cites them from elsewhere.

Like-named read-outs stand apart in the source and are kept apart here.

Targets include SHC1 (Homo sapiens) (UniProt P29353); HCK (Homo sapiens) (UniProt P08631); SH3BP2 (Homo sapiens) (UniProt P78314); RASA1-N (Homo sapiens) (UniProt P20936); TENC1 (Homo sapiens) (UniProt Q63HR2); PTPN11-N (Homo sapiens) (UniProt Q06124); SHB (Homo sapiens) (UniProt Q15464); PIK3R3-N (Homo sapiens) (UniProt Q92569); ABL2 (Homo sapiens) (UniProt P42684); SHC3 (Homo sapiens) (UniProt Q92529); CRKL (Homo sapiens) (UniProt P46109); DAPP1 (Homo sapiens) (UniProt Q9UN19); YES1 (Homo sapiens) (UniProt P07947); SRC (Homo sapiens) (UniProt P12931); BTK (Homo sapiens) (UniProt Q06187); SH2B2 (Homo sapiens) (UniProt O14492); PIK3R1-C (Homo sapiens) (UniProt P27986); FGR (Homo sapiens) (UniProt P09769); PLCG2-NC (Homo sapiens) (UniProt P16885); SOCS3 (Homo sapiens) (UniProt O14543); SYK-N (Homo sapiens) (UniProt P43405); SOCS2 (Homo sapiens) (UniProt O14508); SHC2-PTB (Homo sapiens) (UniProt P98077).

Common to all, as to settings: cited from earlier work
Data set [1] has as its target SLA2 (Homo sapiens) (UniProt Q9H6Q3).
For data set [2], the target named is CRK (Homo sapiens) (UniProt P46108).
CRK (Homo sapiens), sequence (P46108 8-123): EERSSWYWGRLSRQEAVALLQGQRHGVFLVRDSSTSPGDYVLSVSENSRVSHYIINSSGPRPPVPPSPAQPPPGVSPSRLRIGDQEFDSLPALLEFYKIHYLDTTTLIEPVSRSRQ
Data set [3] has as its target RASA1-NC (Homo sapiens) (UniProt P20936).
Data set [4] has as its target CRK (Homo sapiens) (UniProt P46108). The source holds these as a separate data set.
Data set [5] addresses GRB7 (Homo sapiens) (UniProt Q14451).
For data set [6], the target named is SLA2 (Homo sapiens) (UniProt Q9H6Q3). The source holds these as a separate data set.
SLA2 (Homo sapiens), sequence (Q9H6Q3 89-196): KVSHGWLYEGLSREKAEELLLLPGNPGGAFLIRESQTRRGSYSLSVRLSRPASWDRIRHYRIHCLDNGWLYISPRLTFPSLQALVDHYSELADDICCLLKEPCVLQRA
Data set [7] deals with RASA1-NC (Homo sapiens) (UniProt P20936). This is another data set of the same source.
RASA1-NC (Homo sapiens), sequence (P20936 176-446): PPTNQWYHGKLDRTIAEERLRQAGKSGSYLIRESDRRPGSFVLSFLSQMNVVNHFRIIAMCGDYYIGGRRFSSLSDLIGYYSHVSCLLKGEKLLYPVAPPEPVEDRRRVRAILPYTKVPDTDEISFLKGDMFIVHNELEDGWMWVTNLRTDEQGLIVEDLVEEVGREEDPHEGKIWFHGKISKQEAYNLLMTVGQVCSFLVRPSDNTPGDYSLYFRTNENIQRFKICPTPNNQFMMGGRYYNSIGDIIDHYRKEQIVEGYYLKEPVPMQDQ
Data set [8] concerns the target GRB7 (Homo sapiens) (UniProt Q14451). The source holds these as a separate data set.

GRB7 (Homo sapiens), sequence (Q14451 426-532): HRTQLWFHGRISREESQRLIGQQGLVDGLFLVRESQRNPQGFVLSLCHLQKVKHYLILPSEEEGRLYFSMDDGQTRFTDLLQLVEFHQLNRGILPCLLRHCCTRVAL
SOCS3 (Homo sapiens), sequence (O14543 41-147): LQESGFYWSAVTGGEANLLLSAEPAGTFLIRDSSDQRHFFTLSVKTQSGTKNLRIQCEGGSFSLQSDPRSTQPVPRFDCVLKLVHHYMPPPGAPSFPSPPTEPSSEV
SH2B2 (Homo sapiens), sequence (O14492 412-520): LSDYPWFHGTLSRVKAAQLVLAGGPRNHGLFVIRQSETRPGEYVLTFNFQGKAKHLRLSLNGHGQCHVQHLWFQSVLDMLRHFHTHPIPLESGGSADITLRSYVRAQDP
HCK (Homo sapiens), sequence (P08631 139-246): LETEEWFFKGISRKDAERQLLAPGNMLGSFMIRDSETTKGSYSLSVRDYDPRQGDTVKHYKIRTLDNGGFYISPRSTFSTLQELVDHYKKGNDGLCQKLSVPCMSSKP
CRKL (Homo sapiens), sequence (P46109 9-107): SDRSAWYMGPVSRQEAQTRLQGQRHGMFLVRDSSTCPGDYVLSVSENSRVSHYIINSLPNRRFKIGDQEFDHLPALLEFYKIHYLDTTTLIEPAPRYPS
SHC1 (Homo sapiens), sequence (P29353 483-583): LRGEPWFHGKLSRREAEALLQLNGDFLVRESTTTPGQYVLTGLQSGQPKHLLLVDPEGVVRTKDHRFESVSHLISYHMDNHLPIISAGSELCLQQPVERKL
PLCG2-NC (Homo sapiens), sequence (P16885 527-740): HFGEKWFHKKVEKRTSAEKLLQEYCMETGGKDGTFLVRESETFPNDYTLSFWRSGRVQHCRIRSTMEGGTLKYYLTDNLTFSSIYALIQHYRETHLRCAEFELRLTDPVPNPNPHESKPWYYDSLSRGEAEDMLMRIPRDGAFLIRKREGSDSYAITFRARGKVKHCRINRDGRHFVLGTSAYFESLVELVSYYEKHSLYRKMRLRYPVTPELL
SOCS2 (Homo sapiens), sequence (O14508 43-161): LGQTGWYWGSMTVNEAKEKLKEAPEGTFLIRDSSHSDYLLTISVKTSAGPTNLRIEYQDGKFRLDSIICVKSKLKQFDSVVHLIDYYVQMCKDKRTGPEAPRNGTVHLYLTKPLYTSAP
SHB (Homo sapiens), sequence (Q15464 405-509): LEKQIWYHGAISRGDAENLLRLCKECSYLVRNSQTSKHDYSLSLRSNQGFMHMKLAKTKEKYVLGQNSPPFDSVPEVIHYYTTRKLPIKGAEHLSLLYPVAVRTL
PIK3R1-C (Homo sapiens), sequence (P27986 328-723): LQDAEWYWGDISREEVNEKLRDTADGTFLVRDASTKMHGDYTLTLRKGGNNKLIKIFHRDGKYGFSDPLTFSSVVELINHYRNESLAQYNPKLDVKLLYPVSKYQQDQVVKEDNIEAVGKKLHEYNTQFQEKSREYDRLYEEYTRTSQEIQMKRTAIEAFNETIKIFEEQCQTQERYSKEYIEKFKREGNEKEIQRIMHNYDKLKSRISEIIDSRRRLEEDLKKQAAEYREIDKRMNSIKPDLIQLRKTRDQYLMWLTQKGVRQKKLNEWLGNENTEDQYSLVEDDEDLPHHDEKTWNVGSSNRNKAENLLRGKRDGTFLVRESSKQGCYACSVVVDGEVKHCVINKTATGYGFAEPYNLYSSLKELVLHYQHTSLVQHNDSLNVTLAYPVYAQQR
ABL2 (Homo sapiens), sequence (P42684 168-268): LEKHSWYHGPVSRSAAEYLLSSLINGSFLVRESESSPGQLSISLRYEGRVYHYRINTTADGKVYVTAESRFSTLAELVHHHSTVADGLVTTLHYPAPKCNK
DAPP1 (Homo sapiens), sequence (Q9UN19 30-134): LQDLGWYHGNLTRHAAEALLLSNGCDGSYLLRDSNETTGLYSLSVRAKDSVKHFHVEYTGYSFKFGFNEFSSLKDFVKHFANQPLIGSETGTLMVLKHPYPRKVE
SH3BP2 (Homo sapiens), sequence (P78314 452-560): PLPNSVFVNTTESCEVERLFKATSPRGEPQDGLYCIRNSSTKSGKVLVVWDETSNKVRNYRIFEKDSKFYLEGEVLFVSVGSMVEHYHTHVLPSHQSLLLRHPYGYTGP
BTK (Homo sapiens), sequence (Q06187 276-382): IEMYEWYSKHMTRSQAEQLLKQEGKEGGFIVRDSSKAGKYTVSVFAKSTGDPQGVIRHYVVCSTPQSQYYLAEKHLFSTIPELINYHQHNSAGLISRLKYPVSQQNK
RASA1-N (Homo sapiens), sequence (P20936 176-446): as the sequence (P20936 176-446) above
SHC3 (Homo sapiens), sequence (Q92529 494-594): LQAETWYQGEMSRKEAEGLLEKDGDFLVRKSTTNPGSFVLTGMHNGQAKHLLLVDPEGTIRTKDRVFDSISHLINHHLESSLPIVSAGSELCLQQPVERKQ
SHC2-PTB (Homo sapiens), sequence (P98077 482-582): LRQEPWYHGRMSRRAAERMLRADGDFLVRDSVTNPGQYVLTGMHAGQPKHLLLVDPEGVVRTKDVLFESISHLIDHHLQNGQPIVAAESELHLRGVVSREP
TENC1 (Homo sapiens), sequence (Q63HR2 1135-1252): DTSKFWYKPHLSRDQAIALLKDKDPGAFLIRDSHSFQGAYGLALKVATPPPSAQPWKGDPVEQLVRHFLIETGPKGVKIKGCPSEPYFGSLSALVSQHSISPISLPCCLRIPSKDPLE
YES1 (Homo sapiens), sequence (P07947 153-260): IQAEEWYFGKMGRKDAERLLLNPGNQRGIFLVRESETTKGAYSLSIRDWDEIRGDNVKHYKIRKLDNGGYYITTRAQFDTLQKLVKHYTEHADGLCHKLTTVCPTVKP

For …pYEEMRAFQ, the apparent Kd (screen) is 999 nM in the data set with SHC1 (Homo sapiens); 499 nM in the data set with HCK (Homo sapiens); 2000 nM with SH3BP2 (Homo sapiens); 2000 nM with SLA2 (Homo sapiens) [1]; 1500 nM with CRK (Homo sapiens) [2].
Regarding …pYLIPQQGFd, the apparent Kd (screen) is 769 nM with RASA1-N (Homo sapiens); 2000 nM with TENC1 (Homo sapiens); 379 nM with PTPN11-N (Homo sapiens); 1990 nM with SHB (Homo sapiens); 722 nM with PIK3R3-N (Homo sapiens); 282 nM with ABL2 (Homo sapiens).
In the case of …pYLVPQQGF, the apparent Kd (screen) with RASA1-NC (Homo sapiens) [3] is 2000 nM; with CRK (Homo sapiens) [4], 2000 nM; with SHC3 (Homo sapiens), 2000 nM; with GRB7 (Homo sapiens) [5], 1800 nM; with CRKL (Homo sapiens) it was 2000 nM; in the data set with DAPP1 (Homo sapiens) it was 2000 nM.
As for …pYWDQDPPE, the apparent Kd (screen) is 219 nM in the data set with YES1 (Homo sapiens); 2000 nM with SRC (Homo sapiens); 2000 nM with BTK (Homo sapiens); 1470 nM with SH2B2 (Homo sapiens); 2000 nM with PIK3R1-C (Homo sapiens); 2000 nM in the data set with FGR (Homo sapiens). For the same substance, the apparent Kd (screen) with PLCG2-NC (Homo sapiens) was 2000 nM; with SOCS3 (Homo sapiens) it was 2000 nM; in the data set with SLA2 (Homo sapiens) [6] it was 2000 nM; in the data set with SYK-N (Homo sapiens) it was 203 nM; with SOCS2 (Homo sapiens) it was 2000 nM; in the data set with RASA1-NC (Homo sapiens) [7], 224 nM. Also, the apparent Kd (screen) in the data set with GRB7 (Homo sapiens) [8] was 2000 nM; with SHC2-PTB (Homo sapiens), 457 nM.
